Data: PMC9482650, “Quantitative fragmentomics allow affinity mapping of interactomes” (Nature Communications, 2022)

B1: FKBP4, Q02790 (peptide)
chain: GSQSQVETEA
B2: CRHR1, P34998 (peptide)
chain: FHSIKQSTAV

target: DLG2_2, Q15700; assay: holdup assay; parameters: key: below the threshold = too weak to quantify, mostly under pKd 3.1 to 4; conditions: plain residues with an end cap or a label only (N-terminal biotin on a linker: ado-ado)
Sequence (Q15700 189-283): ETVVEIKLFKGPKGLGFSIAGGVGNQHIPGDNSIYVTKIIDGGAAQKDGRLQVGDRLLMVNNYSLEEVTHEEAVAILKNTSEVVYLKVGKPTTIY

Binder | pKd
B1 | below the threshold
B2 | 4.66

target: AHNAK1, Q09666; assay: holdup assay; parameters: key: below the threshold = too weak to quantify, mostly under pKd 3.1 to 4; conditions: plain residues with an end cap or a label only (N-terminal biotin on a linker: ado-ado)
Sequence (Q09666 4-100): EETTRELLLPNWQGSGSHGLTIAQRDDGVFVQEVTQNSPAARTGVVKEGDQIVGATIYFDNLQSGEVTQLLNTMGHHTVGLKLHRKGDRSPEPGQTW

Binder | pKd
B1 | below the threshold
B2 | below the threshold

target: LNX1_2, Q8TBB1; assay: holdup assay; parameters: key: below the threshold = too weak to quantify, mostly under pKd 3.1 to 4; conditions: plain residues with an end cap or a label only (N-terminal biotin on a linker: ado-ado)
Sequence (Q8TBB1 371-470): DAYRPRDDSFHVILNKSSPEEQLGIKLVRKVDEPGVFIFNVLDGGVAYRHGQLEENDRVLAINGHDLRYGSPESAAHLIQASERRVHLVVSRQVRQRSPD

Binder | pKd
B1 | below the threshold
B2 | below the threshold

target: FRMPD2_2, Q68DX3; assay: holdup assay; parameters: key: below the threshold = too weak to quantify, mostly under pKd 3.1 to 4; conditions: plain residues with an end cap or a label only (N-terminal biotin on a linker: ado-ado)
Sequence (Q68DX3 944-1038): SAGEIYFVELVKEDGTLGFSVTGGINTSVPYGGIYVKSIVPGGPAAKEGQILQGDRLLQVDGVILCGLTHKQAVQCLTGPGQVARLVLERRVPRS

Binder | pKd
B1 | below the threshold
B2 | 3.7

target: TJP1_3, Q07157; assay: holdup assay; parameters: key: below the threshold = too weak to quantify, mostly under pKd 3.1 to 4; conditions: plain residues with an end cap or a label only (N-terminal biotin on a linker: ado-ado)
Sequence (Q07157 416-512): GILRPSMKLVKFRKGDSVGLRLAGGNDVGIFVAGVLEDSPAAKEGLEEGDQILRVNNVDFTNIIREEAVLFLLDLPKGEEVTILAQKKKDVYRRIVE

Binder | pKd
B1 | below the threshold
B2 | below the threshold

target: T1, TIAM2, Q8IVF5; assay: holdup assay; parameters: key: below the threshold = too weak to quantify, mostly under pKd 3.1 to 4; conditions: plain residues with an end cap or a label only (N-terminal biotin on a linker: ado-ado)
T1 sequence (Q8IVF5 885-986, limits assumed, looked up): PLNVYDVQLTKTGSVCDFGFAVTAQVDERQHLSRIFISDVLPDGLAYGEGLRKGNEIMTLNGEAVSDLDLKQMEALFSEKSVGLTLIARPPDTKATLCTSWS

Binder | pKd
B1 | 4.04
B2 | below the threshold

target: T2, APBA3_1, O96018; assay: holdup assay; parameters: key: below the threshold = too weak to quantify, mostly under pKd 3.1 to 4; conditions: plain residues with an end cap or a label only (N-terminal biotin on a linker: ado-ado)
T2 sequence (O96018 389-490, limits assumed, looked up): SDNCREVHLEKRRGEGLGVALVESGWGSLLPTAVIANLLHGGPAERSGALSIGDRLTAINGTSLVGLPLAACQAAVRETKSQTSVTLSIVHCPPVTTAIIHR

Binder | pKd
B1 | below the threshold
B2 | below the threshold

target: T3, HTRA4, P83105; assay: holdup assay; parameters: key: below the threshold = too weak to quantify, mostly under pKd 3.1 to 4; conditions: plain residues with an end cap or a label only (N-terminal biotin on a linker: ado-ado)
T3 sequence (P83105 378-476, limits assumed, looked up): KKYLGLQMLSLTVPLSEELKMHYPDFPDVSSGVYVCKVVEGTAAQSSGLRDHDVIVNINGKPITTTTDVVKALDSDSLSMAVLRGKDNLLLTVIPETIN

Binder | pKd
B1 | below the threshold
B2 | below the threshold

target: T4, ARHGEF11, O15085; assay: holdup assay; parameters: key: below the threshold = too weak to quantify, mostly under pKd 3.1 to 4; conditions: plain residues with an end cap or a label only (N-terminal biotin on a linker: ado-ado)
T4 sequence (O15085 42-136, limits assumed, looked up): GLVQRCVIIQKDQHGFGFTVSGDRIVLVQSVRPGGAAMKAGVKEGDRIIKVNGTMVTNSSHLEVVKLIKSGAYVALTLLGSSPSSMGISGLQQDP

Binder | pKd
B1 | below the threshold
B2 | 5

target: LAP2, Q96RT1; assay: holdup assay; parameters: key: below the threshold = too weak to quantify, mostly under pKd 3.1 to 4; conditions: plain residues with an end cap or a label only (N-terminal biotin on a linker: ado-ado)
Sequence (Q96RT1 other isoform, or with tags, fused parts or gaps): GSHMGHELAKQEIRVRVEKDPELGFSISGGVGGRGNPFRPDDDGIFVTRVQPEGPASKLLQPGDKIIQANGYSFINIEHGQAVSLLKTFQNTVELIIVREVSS

Binder | pKd
B1 | below the threshold
B2 | 3.85

target: T5, PDZD2_2, O15018; assay: holdup assay; parameters: key: below the threshold = too weak to quantify, mostly under pKd 3.1 to 4; conditions: plain residues with an end cap or a label only (N-terminal biotin on a linker: ado-ado)
T5 sequence (O15018 329-429, limits assumed, looked up): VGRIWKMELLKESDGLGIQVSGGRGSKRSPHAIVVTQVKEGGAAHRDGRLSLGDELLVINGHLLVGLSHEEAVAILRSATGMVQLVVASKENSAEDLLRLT

Binder | pKd
B1 | below the threshold
B2 | 4.48

target: IL16_4, Q14005; assay: holdup assay; parameters: key: below the threshold = too weak to quantify, mostly under pKd 3.1 to 4; conditions: plain residues with an end cap or a label only (N-terminal biotin on a linker: ado-ado)
Sequence (Q14005 1229-1329): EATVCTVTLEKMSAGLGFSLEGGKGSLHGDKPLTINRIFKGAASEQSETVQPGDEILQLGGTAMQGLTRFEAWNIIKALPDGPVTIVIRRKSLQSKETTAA

Binder | pKd
B1 | below the threshold
B2 | below the threshold

target: T6, SNTB1, Q13884; assay: holdup assay; parameters: key: below the threshold = too weak to quantify, mostly under pKd 3.1 to 4; conditions: plain residues with an end cap or a label only (N-terminal biotin on a linker: ado-ado)
T6 sequence (Q13884 107-205, limits assumed, looked up): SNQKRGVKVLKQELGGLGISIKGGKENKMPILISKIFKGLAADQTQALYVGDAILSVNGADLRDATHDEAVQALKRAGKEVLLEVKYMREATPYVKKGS

Binder | pKd
B1 | below the threshold
B2 | 3.75

target: Inadl_3, Q8NI35; assay: holdup assay; parameters: key: below the threshold = too weak to quantify, mostly under pKd 3.1 to 4; conditions: plain residues with an end cap or a label only (N-terminal biotin on a linker: ado-ado)
Sequence (Q8NI35 359-469): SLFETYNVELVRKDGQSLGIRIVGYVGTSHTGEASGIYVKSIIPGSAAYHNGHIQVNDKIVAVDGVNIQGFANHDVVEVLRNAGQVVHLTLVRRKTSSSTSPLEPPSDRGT

Binder | pKd
B1 | below the threshold
B2 | below the threshold

target: MAGI2_4, Q86UL8; assay: holdup assay; parameters: key: below the threshold = too weak to quantify, mostly under pKd 3.1 to 4; conditions: plain residues with an end cap or a label only (N-terminal biotin on a linker: ado-ado)
Sequence (Q86UL8 772-865): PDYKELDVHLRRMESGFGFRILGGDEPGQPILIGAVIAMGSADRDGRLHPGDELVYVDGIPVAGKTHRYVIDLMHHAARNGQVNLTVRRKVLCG

Binder | pKd
B1 | below the threshold
B2 | 4.42

target: LNX1_3, Q8TBB1; assay: holdup assay; parameters: key: below the threshold = too weak to quantify, mostly under pKd 3.1 to 4; conditions: plain residues with an end cap or a label only (N-terminal biotin on a linker: ado-ado)
Sequence (Q8TBB1 500-596): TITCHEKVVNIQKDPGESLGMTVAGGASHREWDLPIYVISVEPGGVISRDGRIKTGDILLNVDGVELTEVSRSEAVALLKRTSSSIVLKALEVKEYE

Binder | pKd
B1 | below the threshold
B2 | below the threshold

target: T7, SNTG2, Q9NY99; assay: holdup assay; parameters: key: below the threshold = too weak to quantify, mostly under pKd 3.1 to 4; conditions: plain residues with an end cap or a label only (N-terminal biotin on a linker: ado-ado)
T7 sequence (Q9NY99 68-166, limits assumed, looked up): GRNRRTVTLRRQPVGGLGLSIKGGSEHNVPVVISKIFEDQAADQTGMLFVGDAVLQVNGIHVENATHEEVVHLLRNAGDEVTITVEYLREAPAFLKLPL

Binder | pKd
B1 | below the threshold
B2 | 3.6

target: T8, NHERF3_4, Q5T2W1; assay: holdup assay; parameters: key: below the threshold = too weak to quantify, mostly under pKd 3.1 to 4; conditions: plain residues with an end cap or a label only (N-terminal biotin on a linker: ado-ado)
T8 sequence (Q5T2W1 373-468, limits assumed, looked up): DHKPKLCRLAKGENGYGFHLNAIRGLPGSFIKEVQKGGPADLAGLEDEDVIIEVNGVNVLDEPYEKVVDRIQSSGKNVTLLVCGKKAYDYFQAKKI

Binder | pKd
B1 | 3.73
B2 | 4.27

target: DLG1_3, Q12959; assay: holdup assay; parameters: key: below the threshold = too weak to quantify, mostly under pKd 3.1 to 4; conditions: plain residues with an end cap or a label only (N-terminal biotin on a linker: ado-ado)
Sequence (Q12959 457-571): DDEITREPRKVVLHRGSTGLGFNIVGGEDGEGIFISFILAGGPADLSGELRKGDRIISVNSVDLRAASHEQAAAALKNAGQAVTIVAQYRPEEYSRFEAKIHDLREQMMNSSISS

Binder | pKd
B1 | below the threshold
B2 | 3.96

target: T9, LIN7C, Q9NUP9; assay: holdup assay; parameters: key: below the threshold = too weak to quantify, mostly under pKd 3.1 to 4; conditions: plain residues with an end cap or a label only (N-terminal biotin on a linker: ado-ado)
T9 sequence (Q9NUP9 88-185, limits assumed, looked up): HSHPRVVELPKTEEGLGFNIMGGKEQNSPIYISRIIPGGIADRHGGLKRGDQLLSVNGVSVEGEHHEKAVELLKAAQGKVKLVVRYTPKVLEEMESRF

Binder | pKd
B1 | below the threshold
B2 | below the threshold

target: Inadl_6, Q8NI35; assay: holdup assay; parameters: key: below the threshold = too weak to quantify, mostly under pKd 3.1 to 4; conditions: plain residues with an end cap or a label only (N-terminal biotin on a linker: ado-ado)
Sequence (Q8NI35 1058-1167): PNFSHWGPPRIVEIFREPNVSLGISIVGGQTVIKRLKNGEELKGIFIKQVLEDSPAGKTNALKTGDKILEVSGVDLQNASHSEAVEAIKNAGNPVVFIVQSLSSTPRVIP

Binder | pKd
B1 | below the threshold
B2 | below the threshold

target: T10, LNX2_3, Q8N448; assay: holdup assay; parameters: key: below the threshold = too weak to quantify, mostly under pKd 3.1 to 4; conditions: plain residues with an end cap or a label only (N-terminal biotin on a linker: ado-ado)
T10 sequence (Q8N448 463-564, limits assumed, looked up): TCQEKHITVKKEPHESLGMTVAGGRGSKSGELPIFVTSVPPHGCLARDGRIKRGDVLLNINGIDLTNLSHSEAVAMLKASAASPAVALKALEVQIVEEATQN

Binder | pKd
B1 | below the threshold
B2 | below the threshold

target: T11, GRIP1_4, Q9Y3R0; assay: holdup assay; parameters: key: below the threshold = too weak to quantify, mostly under pKd 3.1 to 4; conditions: plain residues with an end cap or a label only (N-terminal biotin on a linker: ado-ado)
T11 sequence (Q9Y3R0 467-571, limits assumed, looked up): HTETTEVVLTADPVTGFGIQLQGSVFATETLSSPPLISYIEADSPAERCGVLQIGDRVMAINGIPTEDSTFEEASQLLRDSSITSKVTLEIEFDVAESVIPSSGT

Binder | pKd
B1 | below the threshold
B2 | below the threshold

target: T12, PDZRN3_1, Q9UPQ7; assay: holdup assay; parameters: key: below the threshold = too weak to quantify, mostly under pKd 3.1 to 4; conditions: plain residues with an end cap or a label only (N-terminal biotin on a linker: ado-ado)
T12 sequence (Q9UPQ7 244-349, limits assumed, looked up): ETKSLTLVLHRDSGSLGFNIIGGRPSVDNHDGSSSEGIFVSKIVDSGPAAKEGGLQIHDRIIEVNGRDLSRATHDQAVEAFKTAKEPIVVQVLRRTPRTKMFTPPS

Binder | pKd
B1 | below the threshold
B2 | 4.17

target: SNX27, Q96L92; assay: holdup assay; parameters: key: below the threshold = too weak to quantify, mostly under pKd 3.1 to 4; conditions: plain residues with an end cap or a label only (N-terminal biotin on a linker: ado-ado)

Binder | pKd
B1 | below the threshold
B2 | 4.91

target: SCRIB_2, Q14160; assay: holdup assay; parameters: key: below the threshold = too weak to quantify, mostly under pKd 3.1 to 4; conditions: plain residues with an end cap or a label only (N-terminal biotin on a linker: ado-ado)
Sequence (Q14160 857-960): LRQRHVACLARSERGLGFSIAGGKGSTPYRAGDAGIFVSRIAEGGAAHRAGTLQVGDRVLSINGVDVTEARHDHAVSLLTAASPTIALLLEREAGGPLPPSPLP

Binder | pKd
B1 | below the threshold
B2 | 4.18
